Substrate in this data set: NC(=O)N[C@H]1NC(=O)NC1=O
Nature of the data set: purified protein. It is filed as biochemical, Klebsiella pneumoniae. The note with it: 10 mM NaCl, 10 mM HEPES, pH 7.5, 25 °C, no cofactor or metal.

B1: KpHpxA (K. pneumoniae allantoin racemase) (Klebsiella pneumoniae subsp. pneumoniae MGH 78578) (protein)
chain: MSSVRIQVINPNTSLAMTETIGAAARAVAAPGTEILAVCPRAGVPSIEGHFDEAIAAVGVLEQIRAGREQGVDGHVIACFGDPGLLAARELAQGPVIGIAEAAMHMATMVATRFSIVTTLPRTLIIARHLLHQYGFHQHCAALHAIDLPVLALEDGSGLAQEKVRERCIRALKEDGSGAIVLGCGGMATLAQELTRELRVPVIDGVSAAVKMVESLVALGLATSKHGDLAFPEKKALSGQFQSLNPF
Take B1: the kcat (in general, the number of substrate molecules converted per active site and unit of time at saturation) was 183 ± 17 s⁻¹.

Values taken from publication PMC3129624.
